Laboratory results published in patent US8828923B2, “Insulin derivatives” (Novo Nordisk A/S, priority 2003, dated 2014).

Legend:
human insulin receptor = human insulin receptor (Homo sapiens, UniProt P06213); test: Assay (I) insulin receptor binding, SPA antibody capture assay; conditions: recombinant human insulin receptor - exon 11, A14 Tyr[125I]-human insulin tracer
Procedure: SPA-PVT antibody-binding beads, anti-mouse reagent (Amersham Biosciences, Cat No. PRNQ0017) were mixed with 25 ml of binding buffer (100 mM HEPES pH 7.8; 100 mM sodium chloride, 10 mM MgSO4, 0.025% Tween-20). […] A total of 100 μl was then added and a dilution series is made from appropriate samples. To the dilution series was then added 100 μl of reagent mix and the samples were incubated for 16 hours while gently shaken. The phases were the then separated by centrifugation for 1 min and the plates counted in a Topcounter. The binding data were fitted using the nonlinear regression algorithm in the GraphPad Prism 2.01 (GraphPad Software, San Diego, Calif.).
Specific antibodies (F12) were produced by monoclonal technique: RBF mice were immunized by injecting 50 μg of purified mIR in FCA subcutaneously followed by two injections with 20 μg of mIR in FIA. Highresponder mice were boosted intravenously with 25 μg of mIR and the spleens were harvested after 3 days. Spleen cells were fused with the myeloma Fox cell line (Kohler, G & Milstein C. (1976), European J. Immunology, 6:511-19; Taggart RT et al (1983), Science 219:1228-30). Supernatants were screened for antibody production in a mIR specific ELISA. Positive wells were cloned and tested in Western blotting.

[1] = Hydrophobicity (hydrophobic index) k′rel relative to human insulin by isocratic RP-HPLC; type: physicochemical; conditions: LiChrosorb RP18, isocratic elution, 40° C., pH 7.3 phosphate/acetonitrile
Procedure: The elution was monitored by following the UV absorption of the eluate at 214 nm. Void time, t0, was found by injecting 0.1 mM sodium nitrate.

Sprague Dawley male rats = test: Assay (II) potency relative to human insulin, euglycaemic clamp with i.v. infusion; type: in vivo; conditions: rat clamp, i.v. infusion for 300 min, 15 and 20 pmol/min/kg
Description: Sprague Dawley male rats weighing 238-383 g on the experimental day were used for the clamp experiment. The rats had free access to feed under controlled ambient conditions and were fasted overnight (from 3 pm) prior to the clamp experiment.
The rats were acclimatized in the animal facilities for at least 1 week prior to the surgical procedure. Approximately 1 week prior to the clamp experiment Tygon catheters were inserted under halothane anaesthesia into the jugular vein (for infusion) and the carotid artery (for blood sampling) and exteriorised and fixed on the back of the neck. The rats were given Streptocilin vet. (Boehringer Ingelheim; 0.15 ml/rat, i.m.) post-surgically and placed in an animal care unit (25° C.) during the recovery period. In order to obtain analgesia, Anorphin (0.06 mg/rat, s.c.) was administered during anaesthesia and Rimadyl (1.5 mg/kg, s.c.) was administered after full recovery from the anaesthesia (2-3 h) and again once daily for 2 days.
The clamp technique employed was adapted from (1). At 7 am on the experimental day overnight fasted (from 3 pm the previous day) rats were weighed and connected to the sampling syringes and infusion system (Harvard 22 Basic pumps, Harvard, and Perfectum Hypodermic glass syringe, Aldrich) and then placed into individual clamp cages where they rested for ca. 45 min before start of experiment. The rats were able to move freely on their usual bedding during the entire experiment and had free access to drinking water. […] Plasma glucose levels were measured at 10 min intervals throughout and infusion of 20% aqueous glucose was adjusted accordingly in order to maintain euglyceamia. Samples of re-suspended erythrocytes were pooled from each rat and returned in about ½ ml volumes via the carotid catheter.
Rats were killed at the end of experiment using a pentobarbital overdose.
Test compounds and doses: Insulins to be tested were diluted from a stock solution containing 97 μM of the insulin derivative in 5 mM phosphate pH 7.7. The final concentration in the solution ready for use was 0.45 μM of the insulin derivative, 5 mM of phosphate, 100 mM of sodium chloride, 0.007% of polysorbate 20. The pH was 7.7 and the i.v. infusion rate was 15 and 20 pmol-min^−1−kg^−1.
Both stock solutions were stored at −20 C. and thawed overnight at 4° C. before use. The solutions were gently turned upside down several times 15 min before they were transferred to the infusion syringes.

Sequence of human insulin receptor (P06213 28-746 isoform P06213-2 limits assumed): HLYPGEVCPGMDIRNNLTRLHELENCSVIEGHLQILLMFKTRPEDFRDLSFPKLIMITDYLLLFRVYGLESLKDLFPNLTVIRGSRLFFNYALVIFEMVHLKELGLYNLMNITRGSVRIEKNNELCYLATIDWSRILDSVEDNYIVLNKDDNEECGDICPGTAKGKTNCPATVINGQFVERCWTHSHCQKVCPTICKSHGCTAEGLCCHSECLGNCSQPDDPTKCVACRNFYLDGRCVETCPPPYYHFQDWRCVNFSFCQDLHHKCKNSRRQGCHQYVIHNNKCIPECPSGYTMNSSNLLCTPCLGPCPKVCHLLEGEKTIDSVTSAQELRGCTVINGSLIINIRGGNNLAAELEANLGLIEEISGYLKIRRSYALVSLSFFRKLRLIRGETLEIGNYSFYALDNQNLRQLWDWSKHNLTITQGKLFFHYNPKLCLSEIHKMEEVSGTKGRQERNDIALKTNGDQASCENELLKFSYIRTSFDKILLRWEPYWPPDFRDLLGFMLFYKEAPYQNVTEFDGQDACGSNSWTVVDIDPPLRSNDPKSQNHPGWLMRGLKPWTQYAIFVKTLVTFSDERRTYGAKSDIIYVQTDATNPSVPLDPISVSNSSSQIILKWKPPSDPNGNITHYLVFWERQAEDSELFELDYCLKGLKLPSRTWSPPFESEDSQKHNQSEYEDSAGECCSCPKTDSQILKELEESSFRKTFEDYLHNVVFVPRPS
Sequence of human insulin receptor (P06213 763-1382 partner limits assumed): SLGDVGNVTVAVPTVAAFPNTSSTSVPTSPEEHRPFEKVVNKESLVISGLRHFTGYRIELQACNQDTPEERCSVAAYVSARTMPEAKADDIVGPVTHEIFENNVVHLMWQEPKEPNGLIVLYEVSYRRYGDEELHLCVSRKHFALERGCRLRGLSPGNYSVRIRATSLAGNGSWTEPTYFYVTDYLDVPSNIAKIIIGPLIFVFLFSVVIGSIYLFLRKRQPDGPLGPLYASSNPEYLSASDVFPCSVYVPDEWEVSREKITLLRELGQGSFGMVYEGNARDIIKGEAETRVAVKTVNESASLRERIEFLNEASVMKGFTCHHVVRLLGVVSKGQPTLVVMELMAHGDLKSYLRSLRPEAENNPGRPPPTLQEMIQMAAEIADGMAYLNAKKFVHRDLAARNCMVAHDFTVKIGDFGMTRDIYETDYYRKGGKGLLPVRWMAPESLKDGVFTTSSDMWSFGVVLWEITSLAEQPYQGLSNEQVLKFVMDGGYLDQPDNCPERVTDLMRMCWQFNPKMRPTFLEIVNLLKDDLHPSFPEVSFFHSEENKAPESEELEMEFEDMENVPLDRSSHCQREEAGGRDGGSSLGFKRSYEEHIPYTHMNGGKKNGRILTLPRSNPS

Substance | Receptor binding (% of human insulin) (human insulin receptor) | k′rel (hydrophobic index relative to human insulin) [1] | Potency relative to human insulin (Sprague Dawley male rats)
N^εB29—(N^α-(HOOC(CH2)14CO)-γ-Glu) des(B30) Human Insulin | 26 % of human insulin | 0.87 | >50%
N^εB29—(N^α-(HOOC(CH2)16CO)-γ-Glu—N-(γ-Glu)) des(B30) Human Insulin | 11 % of human insulin | 1.17 | >50%
N^εB29—(N—(Gly-OC(CH2)13CO-γ-L-Glu) des(B30) Human Insulin | 22 % of human insulin | 0.58 | 
N^εB29—(N—(Gly-OC(CH2)14CO-γ-L-Glu) des(B30) Human Insulin | 32 % of human insulin | 0.88 | >50%
N^εB29—(N—(Gly-OC(CH2)16CO-γ-L-Glu) des(B30) Human Insulin | 9.1 % of human insulin | 1.57 | 
N^εB29—(N—(HOOC(CH2)14CO-ε-L-LysCO—) des(B30) Human Insulin | 5.7 % of human insulin | 0.90 | 
N^εB29—(N—(L-Asp-OC(CH2)16CO)-γ-L-Glu) des(B30) Human Insulin | 13 % of human insulin | 0.70 | 
N^εB29—(N—(L-Glu-OC(CH2)14CO-γ-L-Glu) des(B30) Human Insulin | 13 % of human insulin | 0.33 | 
N^εB29—(N—(L-Glu-OC(CH2)14CO—) des(B30) Human Insulin | 9.4 % of human insulin | 1.17 | 
N^εB29—(N—(L-Sar-OC(CH2)13CO-γ-L-Glu) des(B30) Human Insulin | 20 % of human insulin | 0.63 | 
N^εB29—(N—HOOC(CH2)8CO-γ-Glu) des(B30) human insulin |  | 0.45 | 
N^εB29—(N—HOOC(CH2)13CO-β-L-Asp) des(B30) Human Insulin | 11 % of human insulin | 0.47 | 
N^εB29—(N—HOOC(CH2)13CO-β-L-Glu) des(B30) Human Insulin | 15 % of human insulin | 0.54 | 
N^εB29—(N—HOOC(CH2)14CO-β-D-Asp) des(B30) Human Insulin | 37 % of human insulin |  | 
N^εB29—(N—HOOC(CH2)14CO-β-L-Asp) des(B30) Human Insulin | 16 % of human insulin | 0.69 | >50%
N^εB29—(N—HOOC(CH2)15CO-β-L-Asp) des(B30) Human Insulin | 5.4 % of human insulin | 1.09 | 
N^εB29—(N—HOOC(CH2)15CO-γ-L-Glu) des(B30) Human Insulin | 4 % of human insulin | 1.13 | 
N^εB29—(N—HOOC(CH2)16CO-α-Glu)-N-(AspAsp) des(B30) human insulin |  | 1.07 | 
N^εB29—(N—HOOC(CH2)16CO-α-L-Asp) des(B30) Human Insulin | 13 % of human insulin | 1.49 | 
N^εB29—(N—HOOC(CH2)16CO-α-L-Asp)—N-(β-L-Asp) des(B30) Human Insulin | 14 % of human insulin |  | 
N^εB29—(N—HOOC(CH2)16CO-α-L-Glu) des(B30) Human Insulin | 16 % of human insulin | 1.51 | 
N^εB29—(N—HOOC(CH2)16CO-α-L-Glu)—N—(β-L-Asp) des(B30) Human Insulin | 11 % of human insulin | 1.11 | 
N^εB29—(N—HOOC(CH2)16CO-β-L-Asp) des(B30) Human Insulin | 11 % of human insulin | 1.54 | 
N^εB29—(N—HOOC(CH2)16CO-γ-D-Glu) des(B30) Human Insulin | 13 % of human insulin | 1.4 | 
N^εB29—(N—HOOC(CH2)16CO-δ-L-Aad) des(B30) Human Insulin | 7 % of human insulin | 0.84 | 
N^εB29—[N^α-(HOOC(CH2)11)NHCO(CH2)3CO)-γ-L-Glu] des(B30) Human Insulin | 46 % of human insulin | 0.42 | 
N^εB29—[N—(HOOC(CH2)16CO)—N-(carboxymethyl)-β-Ala] des(B30) Human Insulin | 9.4 % of human insulin | 1.13 | 
NεB29—(Nα-(HOOC(CH2)16CO)-γ-Glu) des(B30) Human Insulin | 9.2 % of human insulin | 1.15 | >50%
